# Source: US20210292393A1 (published 2021)
# Changes are numbered by the printed parent chain.
# B1: antibody 273 (antibody, V domains shown)
# VH: QVQLVQSGAEVKKPGASVKVSCKVSGYTLTELSMHWVRQAPGKGLEWMGGFDPEDGETIYAQKFQGRVTMTEDTSTDTAYMELSSLRSEDTAVYYCATAPGYYDSSAPQPINWFDPWGQGTLVTVSS
# VL: QSALTQPASVSGSPGQSITISCTGTSSDVGSYNLVSWYQQHPGKAPKLMIYEVSKRPSGVSNRFSGSKSGNTASLTISGLQAEDEADYYCCSYAGSSTLVFGGGTKLTVL
# B2: antibody 264 (antibody, V domains shown)
# VH: QVHLVESGGGVVQPGRSLRLSCAASGFTLTSYAMHWVRQAPGKGLEWVALISYDGSVKKYAESVKGRITVSGDNSRNTLHLQINTLRADDTAVYYCVRGGVSGPNSFDLWGQGTMVTVSS
# VL: DVVMTQSPLSLPVTLGQPASISCRSSQSLEYSDGNTYVNWFQQRPGQSPRRLIYQVSNRASGVPDRFSGSGSGTDFTLQISRVEAEDVGIYYCMQGTHWPVTFGQGTKVEIK
# B3: antibody 266 (antibody, V domains shown)
# VH: QVQLVESGGGVVQPGRSLRLSCAASGFNLSNYAMHWVRQPSGKGLEWVSLISYDGSIKYYTDSVKGRFTVSGDNSKNTLFLQMNSLRPDDSALYYCVRGGVSGPNSFDMWGQGTTVTVSS
# VL: B2 VL with E30V, N58I, T77A, Q79K, I90V
# B4: antibody 288 (antibody, V domains shown)
# VH: EVQLVESGGGLVQPGGSLRLSCAASGFTFSSYDMHWVRQATGKGLEWVSAIGTAGDTYYPGSVKGRFTISRENAKNSLYLQMNSLRAGDTAVYYCARGANRDYDILTGYYSYYYYGMDVWGQGTTVTVSS
# VL: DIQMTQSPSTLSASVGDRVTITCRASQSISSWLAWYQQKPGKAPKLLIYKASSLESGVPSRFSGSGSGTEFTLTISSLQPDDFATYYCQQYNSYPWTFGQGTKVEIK
# B5: antibody 263 (antibody, V domains shown)
# VH: EVQLVQSGAEVKKPGATVKISCKVSGYTFTDYYMHWVQQAPGKGLEWMGLVDPEDGETIYAEKFQGRVTITADTSTDTAYMELSSLRSDDTAVYYCTTDLAFTIFGGRRGFDPWGQGTLVTVSS
# VL: DIQLTQSPSFLSASVGDRVTITCRASQGISSYLAWYQQKPGKAPKLLIYAASTLQSGVPSRFSGSGSGTEFTLTISSLQPEDFATYYCQQLNSYDFGQGTRLEIK
# B6: antibody 284 (antibody, V domains shown)
# VH: QVTLRESGPALVKPTQTLTLTCTFSGFSLSTSGMCVSWIRQPPGKALEWLALIDWDDDKYYSTSLKTRLTISKDTSKNQVVLTMTNMDPVDTATYYCARTSGYSSSWPSFDYWGQGTLVTVSS
# VL: not shown
# B7: antibody 260 (antibody, V domains shown)
# VH: EVQLVESGGGLVQPGRSLRLSCAASGFTFDYYAMHWVRQAPGKGLEWVSGISWNSGTIGYADSVKGRFTISRDNAKNSLYLQMNSLRAEDTALYYCAKDSRPSGRYYYGMDVWGQGTTVTVSS
# VL: not shown
# B8: antibody 276 (antibody, V domains shown)
# VH: QVQLQESGPGLVKPSQTLSLTCTVSGDSISSGGYYWSWIRQHPGKGLEWIGYIYYSGSAYYNPSLKSRVTISLDTSKNQFSLKLSSVTAADTAVYYCARDSVAGFSIFDYWGQGTLVTVSS
# VL: SSELTQDPAVSVALGQTVRITCQGDSLRSYYASWYQQKPGQAPVRVIYGKNNRPSGIPDRFSGSSSGNTASLTITGAQAEDEADYYCNSWDSSGNHVVFGGGTKLTVL
# B9: antibody 281 (antibody, V domains shown)
# VH: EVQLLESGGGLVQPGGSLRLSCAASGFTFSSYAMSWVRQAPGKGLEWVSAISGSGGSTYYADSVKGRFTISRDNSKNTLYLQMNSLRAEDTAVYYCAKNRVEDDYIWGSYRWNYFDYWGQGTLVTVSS
# VL: QSALTQPASVSGSPGQSITISCTGTSSDVGSYNLVSWYQQHPGKAPKLMIYEVSKRPSGVSNRFSGSKSGNTASLTISGLQAEDEADYYCCSYAGSSTHVVFGGGTKLTVL
# B10: antibody 294 (antibody, V domains shown)
# VH: EVQLVESGGGLVQPGGSLRLSCAASGFTVSSNYMNWVRQAPGKGLEWVSVIYSGGSTYYADSVKGRFTISRDNSKNTLYLQMNSLRAEDTAVYYCARDLGPSGMDVWGQGTTVTVSS
# VL: DIQMTQSPSSVSASVGDRVTITCRASQGISSWLAWYQQKPGKAPKLLIYAASSLQSGVPSRFSGSGSGTDFTLTISSLQPEDFATYYCQQANSFPLFGGGTKVEIK
# B11: antibody 265 (antibody, V domains shown)
# VH: EVQLVQSGAEVKKPGATVKVSCKFSGDTFSHYYIHWVQQAPGKGLEWMGLVDPQDGESEYAQKFQGKVTITADTSIDTSYLEVTSLRFDDTAFYFCATRGMSGAFDRWGQGTLVTVSS
# VL: DIVMTQSPDSLAVSLGERATINCKSSQSILSTSNNKNYLAWYQQKPGQPPKLLIYWASTRESGVPDRFSGGGSGTDFTLTISSLQAEDVAVYYCQQYYRTAYTTPIYTFGQGTKLEIK
# B12: anti-SARS-CoV-2 antibody 1193 (antibody, V domains shown)
# VH: EVQLVESGGGLVQPGGSLRLSCAASGFTFSSYYMNWVRQAPGKGLEWVSYISSGSSIIYYADSVKGRFTISRDNAKNSLYLQMNSLRDEDTAVYYCARDSPLRYFDWQLGGGFDYWGQGTLVTVSS
# VL: B1 VL with S31G, L34Y, E52D, K55N, C91S, A94T, G95S, T98L, L99W
# B13: anti-SARS-CoV-2 antibody 1118 (antibody, V domains shown)
# VH: EVQLVESGGGLVQPGGSLRLSCAASGFRFSNYEMNWVRQAPGKGLEWVSYISSTGGSIFYADSVKGRFTISRGDAKNSVYLQMNSLRAEDTAVYYCARAMYYYGSGTLDYWGQGTLVTVSS
# VL: DIQMTQSPSSLSASVGDRVTITCRASQSISRFLNWYQQKPGTAPKLLIYDVSSLQSGVPTRFSGSGSGTDFTLTISSLQPEDFATYYCQQSYTTPPAFGPGTRVDIK
# B14: anti-SARS-CoV-2 antibody 1091 (antibody, V domains shown)
# VH: EVQLVESGGGLVKPGGSLRLSCAASGFPFITYSMNWVRQAPGKGLEWVSSISRNSDYIYYADSVRGRVTISRDNAENSLYLQMHSLRAEDTAVYYCARDVVRSGNYYIPRHGMDVWGRGTTVTVSS
# VL: QSVLTQPPSASGTPGQRVTISCSGTSSNIGSNTVNWYQQLPETAPKLLIYGTDQRPSGVPDRFSGSKSGTSASLAISRLQSEDEADYYCATRDDSLSGPVFGGGTQLTVL
# B15: anti-SARS-CoV-2 antibody 1203 (antibody, V domains shown)
# VH: QLRLQESGPGLVKPSETLSLTCTVSGGSISSSNFYWGWIRQPPGKGLEWIGSIYYSGSTHYNPSLKSRVTVSVDTSKNQFSLKLSSVTAADTAVYYCARLTYYYDSSGFIRAEPFDYWGQGILVTVSS
# VL: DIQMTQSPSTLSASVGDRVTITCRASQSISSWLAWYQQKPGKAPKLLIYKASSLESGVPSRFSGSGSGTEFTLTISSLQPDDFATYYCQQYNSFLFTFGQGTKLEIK
# B16: anti-SARS-CoV-2 antibody 1081 (antibody, V domains shown)
# VH: EVQLVQSGAEVKKPGESLKISCKRSGYSFTTYWIGWVRQMPGKGLEWMGSIYPGDSDTRYSPSFQGQVTISADKSISTAYLQWSSLKASDTAMYYCASQEVPGYYYYMDVWGKGTTVTVSS
# VL: DIQMTQSPSSLSASVGDRVTITCRASQSISSYLHWYQQKPGKAPKLLIYAASSLQSGVPSRFSGSGSGTDFTLTISSLQPEDFATYYCQQTYSTHTWTFGQGTKVEIK
# B17: anti-SARS-CoV-2 antibody 1098 (antibody, V domains shown)
# VH: B16 VH with E1D, R24G, S28R, T31S, G35A, S50I, E100A, V101A, P102A, Y105F
# VL: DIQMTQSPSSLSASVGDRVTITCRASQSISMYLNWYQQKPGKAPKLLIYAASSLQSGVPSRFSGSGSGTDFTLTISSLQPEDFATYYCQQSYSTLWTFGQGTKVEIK
# Target: SARS-CoV-2 full length spike protein, V483A mutant (SARS-CoV-2, UniProt P0DTC2 14-1273)
row,Binder,"median fluorescence intensity, fold over isotype control [fold over isotype]"
1,B1,16
2,B2,11.1
3,B3,10.8
4,B4,18.7
5,B5,17.3
6,B6,22
7,B7,11
8,B8,11.1
9,B9,20.3
10,B10,18.4
11,B11,14.5

# Target: SARS-CoV-2 spike protein with D614G mutation (SARS-CoV-2, UniProt P0DTC2 14-1208)
row,Binder,Kd [pM]
1,B12,41
2,B13,44
3,B14,19
4,B15,79
5,B16,41
6,B17,22
